# PMC12198772 (PNAS Nexus, 2025)
# Values joined by “and” are separate entries in the source; they are usually repeats but may differ in a detail not shown here. Identical values can stand only once. Like-named read-outs stand apart in the source and are kept apart here.
# T1: human claudin-6 (human, UniProt P56747 1-220)
# T1 sequence: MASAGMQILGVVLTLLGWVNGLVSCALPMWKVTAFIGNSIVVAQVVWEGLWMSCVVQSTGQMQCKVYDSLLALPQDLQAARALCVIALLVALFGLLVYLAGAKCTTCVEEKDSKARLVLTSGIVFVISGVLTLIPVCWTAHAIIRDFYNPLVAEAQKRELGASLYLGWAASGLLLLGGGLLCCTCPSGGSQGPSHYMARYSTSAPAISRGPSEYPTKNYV
# T2: human claudin-9 (human, UniProt O95484 1-217)
# T2 sequence: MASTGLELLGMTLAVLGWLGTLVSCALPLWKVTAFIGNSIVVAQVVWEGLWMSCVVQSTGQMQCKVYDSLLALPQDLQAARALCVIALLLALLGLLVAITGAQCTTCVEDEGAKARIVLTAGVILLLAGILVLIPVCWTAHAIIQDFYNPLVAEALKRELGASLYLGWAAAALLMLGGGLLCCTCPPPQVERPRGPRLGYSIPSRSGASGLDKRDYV
# T3: human claudin-17 (human, UniProt P56750 1-224)
# T3 sequence: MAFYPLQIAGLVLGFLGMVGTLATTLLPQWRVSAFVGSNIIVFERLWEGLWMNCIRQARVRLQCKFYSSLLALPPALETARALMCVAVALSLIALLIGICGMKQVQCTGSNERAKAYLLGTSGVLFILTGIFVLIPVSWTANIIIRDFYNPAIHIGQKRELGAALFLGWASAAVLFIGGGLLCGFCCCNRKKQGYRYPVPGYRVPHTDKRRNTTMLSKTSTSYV
# T4: human claudin-19 (human, UniProt Q8N6F1 1-224)
# T4 sequence: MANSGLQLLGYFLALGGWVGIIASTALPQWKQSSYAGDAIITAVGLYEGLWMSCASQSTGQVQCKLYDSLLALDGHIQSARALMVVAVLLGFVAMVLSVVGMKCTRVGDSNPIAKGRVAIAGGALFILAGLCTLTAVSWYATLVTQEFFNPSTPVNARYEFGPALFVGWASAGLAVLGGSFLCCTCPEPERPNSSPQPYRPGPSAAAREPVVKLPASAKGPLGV
# T5: murine claudin-4 (mouse, UniProt O35054 1-210)
# T5 sequence: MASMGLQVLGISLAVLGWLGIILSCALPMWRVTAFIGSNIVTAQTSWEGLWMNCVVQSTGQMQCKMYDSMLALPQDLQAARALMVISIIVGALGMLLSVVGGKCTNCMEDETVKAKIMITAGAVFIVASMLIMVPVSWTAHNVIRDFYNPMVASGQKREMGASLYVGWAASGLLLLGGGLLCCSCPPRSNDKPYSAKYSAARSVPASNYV
# T6: human eye lens-specific protein 20, histidine-tagged (human) (UniProt P55344)
# T6 sequence: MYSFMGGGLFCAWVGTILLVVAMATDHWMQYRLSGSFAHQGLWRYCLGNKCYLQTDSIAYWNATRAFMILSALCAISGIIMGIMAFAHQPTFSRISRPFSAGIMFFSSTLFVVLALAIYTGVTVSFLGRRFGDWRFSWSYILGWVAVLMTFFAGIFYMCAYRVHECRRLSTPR
# Columns and labels:
# Assay in all cases: BLI
# human claudin-6 [1] = target: T1, human claudin-6
# human claudin-9 [2] = target: T2, human claudin-9
# human claudin-17 [3] = target: T3, human claudin-17
# human claudin-19 [4] = target: T4, human claudin-19
# murine claudin-4 [5] = target: T5, murine claudin-4
# [6] = target: T6, human eye lens-specific protein 20, histidine-tagged (human)
# human occludin = human occludin (Homo sapiens, UniProt Q16625)
# [7] = target: C-terminal domain of Clostridium perfringens enterotoxin, tag removed (Clostridium perfringens, UniProt P01558)
# human claudin-5 [8] = target: T7, human claudin-5 (human, UniProt O00501)
# human claudin-6 [9] = target: T8, human claudin-6 (human, UniProt P56747)
# human claudin-9 [10] = target: T9, human claudin-9 (human, UniProt O95484)
# murine claudin-15 [11] = target: T10, murine claudin-15 (mouse, UniProt Q9Z0S5)
# human claudin-17 [12] = target: T11, human claudin-17 (human, UniProt P56750)
# [13] = target: T12, human claudin-18 splice variant 18.1 (human, UniProt P56856)
# [14] = target: T13, human claudin-18 splice variant 18.2 (human, UniProt P56856-2)
# human claudin-19 [15] = target: T14, human claudin-19 (human, UniProt Q8N6F1)
# human claudin-1 [16] = target: T15, human claudin-1 (human, UniProt O95832)
# human claudin-3 [17] = target: T16, human claudin-3 (human, UniProt O15551)
# murine claudin-3 = murine claudin-3 (mouse, UniProt Q9Z0G9)
# human claudin-4 [18] = target: T17, human claudin-4 (human, UniProt O14493)
# murine claudin-4 [19] = target: murine claudin-4 (mouse, UniProt O35054)
# human claudin-5 [20] = target: T7, human claudin-5; remark: listed apart in the source
# human claudin-6 [21] = target: T8, human claudin-6; remark: listed apart in the source
# human claudin-9 [22] = target: T9, human claudin-9; remark: listed apart in the source
# murine claudin-15 [23] = target: T10, murine claudin-15; remark: listed apart in the source
# human claudin-17 [24] = target: T11, human claudin-17; remark: listed apart in the source
# [25] = target: T12, human claudin-18 splice variant 18.1; remark: listed apart in the source
# [26] = target: T13, human claudin-18 splice variant 18.2; remark: listed apart in the source
# human claudin-19 [27] = target: T14, human claudin-19; remark: listed apart in the source
# [28] = target: human peripheral myelin protein 22 (Homo sapiens, UniProt Q01453)
# [29] = target: Kune-kune from Drosophila melanogaster (Drosophila melanogaster, UniProt A1Z6H0)
# human claudin-1 [30] = target: T15, human claudin-1; remark: listed apart in the source
# human claudin-3 [31] = target: T16, human claudin-3; remark: listed apart in the source
# human claudin-4 [32] = target: T17, human claudin-4; remark: listed apart in the source
# Sequence of human peripheral myelin protein 22 (Q01453 whole entry): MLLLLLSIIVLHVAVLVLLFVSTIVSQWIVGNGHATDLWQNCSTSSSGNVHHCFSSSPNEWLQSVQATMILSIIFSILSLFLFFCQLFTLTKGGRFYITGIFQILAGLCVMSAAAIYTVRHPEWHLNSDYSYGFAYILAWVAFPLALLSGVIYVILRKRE
# T10 sequence (Q9Z0S5 whole entry): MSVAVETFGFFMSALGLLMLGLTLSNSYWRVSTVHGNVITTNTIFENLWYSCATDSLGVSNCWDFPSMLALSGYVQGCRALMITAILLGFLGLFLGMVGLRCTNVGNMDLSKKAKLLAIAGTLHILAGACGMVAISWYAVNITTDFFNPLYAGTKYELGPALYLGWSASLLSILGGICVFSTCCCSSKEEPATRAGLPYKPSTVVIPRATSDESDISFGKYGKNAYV
# T15 sequence (O95832 whole entry): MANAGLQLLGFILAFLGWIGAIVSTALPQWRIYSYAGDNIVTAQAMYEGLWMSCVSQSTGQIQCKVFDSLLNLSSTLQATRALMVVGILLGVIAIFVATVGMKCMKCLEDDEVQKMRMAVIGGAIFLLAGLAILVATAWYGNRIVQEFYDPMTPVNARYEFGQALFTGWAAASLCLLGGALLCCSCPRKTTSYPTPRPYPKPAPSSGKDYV
# T17 sequence (O14493 whole entry): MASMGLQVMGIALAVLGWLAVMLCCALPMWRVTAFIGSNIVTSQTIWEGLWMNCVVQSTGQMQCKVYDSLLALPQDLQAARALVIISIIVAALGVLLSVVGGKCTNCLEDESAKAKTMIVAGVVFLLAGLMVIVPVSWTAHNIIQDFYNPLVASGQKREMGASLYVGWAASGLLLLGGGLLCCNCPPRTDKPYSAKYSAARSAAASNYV
# T16 sequence (O15551 whole entry): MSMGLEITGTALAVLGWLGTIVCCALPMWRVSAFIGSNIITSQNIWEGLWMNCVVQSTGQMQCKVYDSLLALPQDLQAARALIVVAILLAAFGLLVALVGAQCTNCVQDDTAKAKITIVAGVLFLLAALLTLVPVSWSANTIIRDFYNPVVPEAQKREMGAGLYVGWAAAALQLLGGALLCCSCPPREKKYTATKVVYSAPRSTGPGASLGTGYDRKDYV
# T7 sequence (O00501 whole entry): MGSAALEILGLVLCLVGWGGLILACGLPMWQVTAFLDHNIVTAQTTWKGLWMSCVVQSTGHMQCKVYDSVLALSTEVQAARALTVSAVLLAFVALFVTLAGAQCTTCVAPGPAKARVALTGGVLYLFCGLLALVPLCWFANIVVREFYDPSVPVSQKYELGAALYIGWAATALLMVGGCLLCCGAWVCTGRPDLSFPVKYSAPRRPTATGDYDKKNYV
# Sequence of murine claudin-3 (Q9Z0G9 whole entry): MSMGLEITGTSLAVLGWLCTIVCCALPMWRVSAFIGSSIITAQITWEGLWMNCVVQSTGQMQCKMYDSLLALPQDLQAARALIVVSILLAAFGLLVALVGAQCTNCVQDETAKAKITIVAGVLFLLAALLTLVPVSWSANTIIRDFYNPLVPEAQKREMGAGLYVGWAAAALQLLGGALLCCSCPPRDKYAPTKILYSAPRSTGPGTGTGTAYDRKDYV
# Sequence of human occludin (Q16625 whole entry, the tested form may be a part): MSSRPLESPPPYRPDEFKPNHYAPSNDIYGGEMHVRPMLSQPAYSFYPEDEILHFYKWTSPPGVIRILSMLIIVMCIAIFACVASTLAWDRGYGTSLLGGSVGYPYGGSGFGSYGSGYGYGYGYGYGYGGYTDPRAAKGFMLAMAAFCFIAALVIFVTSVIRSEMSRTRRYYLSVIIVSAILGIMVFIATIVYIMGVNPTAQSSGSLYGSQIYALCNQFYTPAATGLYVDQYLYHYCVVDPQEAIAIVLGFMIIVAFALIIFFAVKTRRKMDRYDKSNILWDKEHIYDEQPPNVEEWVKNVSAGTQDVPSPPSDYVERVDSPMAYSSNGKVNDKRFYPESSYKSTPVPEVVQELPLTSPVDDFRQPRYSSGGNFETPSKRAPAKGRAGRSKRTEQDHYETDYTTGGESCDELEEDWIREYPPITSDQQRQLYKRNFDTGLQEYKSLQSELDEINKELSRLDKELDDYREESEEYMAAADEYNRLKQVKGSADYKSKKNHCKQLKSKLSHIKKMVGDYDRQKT
binder,measurement,setting,value
"C-terminal domain of Clostridium perfringens enterotoxin, histidine-tagged (domain or fragment) EILDLAAATERLNLTDALNSNPAGNLYDWRSSNSYPWTQKLNLHLTITATGQKYRILASKIVDFNIYSNNFNNLVKLEQSLGDGVKDHYVDISLDAGQYVLVMKANSSYSGNYPYSILFQKF",Kd,human claudin-6 [1],0.0514 µM
same,Kd,human claudin-9 [2],< 0.02 µM
same,Kd,human claudin-17 [3],0.027 µM
same,Kd,human claudin-19 [4],0.0275 µM
same,Kd,murine claudin-4 [5],< 0.02 µM
"COP-1 synthetic antibody fragment (sFab) without histidine tag (Fab, V domains shown) VH: EVQLVESGGGLVQPGGSLRLSCAASGFNFSSSYIHWVRQAPGKGLEWVASISSSSGSTSYADSVKGRFTISADTSKNTAYLQMNSLRAEDTAVYYCARWFHPWWWWEYLFRGAIDYWGQGTLVTVSS VL: DIQMTQSPSSLSASVGDRVTITCRASQSVSSAVAWYQQKPGKAPKLLIYSASSLYSGVPSRFSGSRSGTDFTLTISSLQPEDFATYYCQQSSSSLITFGQGTKVEIK",Kd,[6],2.78 µM
same,koff,[6],0.11 s⁻¹
"COP-1 synthetic antibody fragment (sFab) with C-terminal histidine tag (Fab, V domains shown) VH: EVQLVESGGGLVQPGGSLRLSCAASGFNFSSSYIHWVRQAPGKGLEWVASISSSSGSTSYADSVKGRFTISADTSKNTAYLQMNSLRAEDTAVYYCARWFHPWWWWEYLFRGAIDYWGQGTLVTVSS VL: DIQMTQSPSSLSASVGDRVTITCRASQSVSSAVAWYQQKPGKAPKLLIYSASSLYSGVPSRFSGSRSGTDFTLTISSLQPEDFATYYCQQSSSSLITFGQGTKVEIK",binding result,human occludin,no binding (tested: 500 nM)
same,binding result,[7],no binding
same,Kd,human claudin-5 [8],0.072 µM and 0.0655 µM
same,Kd,human claudin-6 [9],0.059 ± 0.0009 µM
same,Kd,human claudin-9 [10],0.0699 ± 0.0012 µM
same,Kd,murine claudin-15 [11],0.0633 µM and 0.0612 µM
same,Kd,human claudin-17 [12],0.0655 ± 0.0009 µM
same,Kd,[13],0.0834 µM and 0.0567 µM
same,Kd,[14],0.0628 µM and 0.0556 µM
same,Kd,human claudin-19 [15],0.0624 ± 0.0011 µM
same,Kd,human claudin-1 [16],0.0763 µM and 0.0732 µM
same,Kd,human claudin-3 [17],0.0642 ± 0.0011 µM
same,Kd,murine claudin-3,0.0905 ± 0.0012 µM
same,Kd,human claudin-4 [18],0.0728 ± 0.0009 µM
same,Kd,murine claudin-4 [19],0.0996 ± 0.0012 µM
same,Kd,human claudin-5 [20],0.0758 ± 0.0005 µM
same,koff,human claudin-5 [20],0.0015 s⁻¹
same,kon,human claudin-5 [20],19000 M⁻¹ s⁻¹
same,t1/2,human claudin-5 [20],7.7 min
same,Kd,human claudin-6 [21],0.0595 ± 0.0004 µM
same,koff,human claudin-6 [21],0.0011 s⁻¹
same,kon,human claudin-6 [21],18000 M⁻¹ s⁻¹
same,t1/2,human claudin-6 [21],10.5 min
same,Kd,human claudin-9 [22],0.066 ± 0.0004 µM
same,koff,human claudin-9 [22],0.0015 s⁻¹
same,kon,human claudin-9 [22],22000 M⁻¹ s⁻¹
same,t1/2,human claudin-9 [22],7.7 min
same,Kd,murine claudin-15 [23],0.059 ± 0.0005 µM
same,koff,murine claudin-15 [23],0.0012 s⁻¹
same,kon,murine claudin-15 [23],21000 M⁻¹ s⁻¹
same,t1/2,murine claudin-15 [23],9.6 min
same,Kd,human claudin-17 [24],0.0802 ± 0.0006 µM
same,koff,human claudin-17 [24],0.0015 s⁻¹
same,kon,human claudin-17 [24],19000 M⁻¹ s⁻¹
same,t1/2,human claudin-17 [24],7.7 min
same,Kd,[25],0.0924 ± 0.0005 µM
same,koff,[25],0.0014 s⁻¹
same,kon,[25],16000 M⁻¹ s⁻¹
same,t1/2,[25],8.3 min
same,Kd,[26],0.0664 ± 0.0005 µM
same,koff,[26],0.0009 s⁻¹
same,kon,[26],13000 M⁻¹ s⁻¹
same,t1/2,[26],12.8 min
same,Kd,human claudin-19 [27],0.0622 ± 0.0004 µM
same,koff,human claudin-19 [27],0.0011 s⁻¹
same,kon,human claudin-19 [27],17000 M⁻¹ s⁻¹
same,t1/2,human claudin-19 [27],10.5 min
same,Kd,[28],0.1095 ± 0.0008 µM
same,koff,[28],0.002 s⁻¹
same,kon,[28],18000 M⁻¹ s⁻¹
same,t1/2,[28],5.8 min
same,Kd,[29],0.238 ± 0.0029 µM
same,koff,[29],0.0044 s⁻¹
same,kon,[29],18000 M⁻¹ s⁻¹
same,t1/2,[29],2.7 min
same,Kd,human claudin-1 [30],0.0613 ± 0.0005 µM
same,koff,human claudin-1 [30],0.0009 s⁻¹
same,kon,human claudin-1 [30],15000 M⁻¹ s⁻¹
same,t1/2,human claudin-1 [30],12.8 min
same,Kd,human claudin-3 [31],0.0579 ± 0.0005 µM
same,koff,human claudin-3 [31],0.0012 s⁻¹
same,kon,human claudin-3 [31],21000 M⁻¹ s⁻¹
same,t1/2,human claudin-3 [31],9.6 min
same,Kd,human claudin-4 [32],0.0706 µM and 0.106 µM
